From the DeepSol protein solubility set

assay: soluble on expression in E. coli; label from the status in PepcDB or PDB records

| Sequence | soluble on expression in E. coli |
| --- | --- |
| MRVSKSKKPTEICPIVSAIAIIGSEPKLLTIRYLLDGPKRFNELQRLTSLSSKTLSKTLKELENHGIVERKIINSHPIVAVYELTDKGKDLKRVFDELRRWGEKFALTKIAVMNSIRVNQEF | soluble |
| SLTRRADDGPLVLTGANAPMSATTASGQADASFFDPGLLRRFGITRVGDVTGLDIIGIPVWFAARPNSRGLSVSQGKGLFADQARLSAIMEAIEGAVAEETRRHVTAFGSIEEMRNKGVPLIPFETVGRIDPDALDLRKERAWVKGTSIRQQQEVFAPYELIGMDFRAEFPWDRQAFRMSSQGLAAGFEQDHAVLHALLELIENDASFLVDTFETRAITPQPFLLSAGMDSLLDDLIQHLSNIGLPPSFFDLTNALGVPVVMASLPRSLQAEDGPATRSAAGAACRPNTHAAAMAALLEAIQSRLTDISGARDDLSPLRYQRDLSTSGPTASRAQPLRQMPADLNFPESDLSLPPWRQLAEHLFARGIEDIHVFPLETEVSGLHVVRILASGLAPAGGGLQHISPRTLDHLLNLGGT | soluble |
| MDSRSLSVHDGAMQTLTVPDSGLAPLLPGQRLARGVCRHLRSHDFVSVVELVPAPGLRVDVMALGPKGEIWVVECKSSRADYQSDRKWQGYLDWCDRFFFAVDEAFPVDLLPEGTGLMLADGYDAEILRIGPEGRLAPARRKAVIQGFARHAALRLQGLRDPGAFPG | not soluble |
| MGSDKIHHHHHHMTHLDDMALFVEVVKAKGFRGAADALGMPNSTLSRRIGALEKAIGLRLLHRTTRKVEPTEAGLLYYERSKRIVEEARLVHEQLGEMLAQPSGLLRASFPEGFANIFLAPLVAEFARRYPGIRFEFDLSPRLADLVSDPVDVAIRMGEPANSNLIARQLARLPRHLYASPRYLDMLGEPQHPDELVQHECLRLRGSKSDIWTVQNRDETVDVAVGGRFLLNSVGMIQRLAALDMGIAILAESIVTDDVAQGRLRRVLPQWEATPVPVYALTETRLLPAKTQRFIDFLREHLSSI | not soluble |
| MLEPCTKRSELLYRMHLLSKEISHVFEQQTNMSFTKVEILFHIKQTPGQSQNRLKEKLYIDSASITRHLKRMEEQGLIVRKKQDENKRYTYLFLTPAGEAELTSLLTEKEKFQTGALEGFSEDEVSALLKSVTKMMNNVEKLEEKLK | not soluble |
| KRAVDARTVGRMIRMSGCPDESASAKAVDWFVLMFMLRGIPFVDLAHLRRSNLDKGVLTYCRHKTGQEVSISVPREAMEIINRRMVENCHPSYLLPILGQPRTRKRHTKKALTPYQEYQYALRNLNRRLERVSVDLRLGGRLSSYTARHTWATIAFHQETPVGVISRGLGHSSVKVTETYLKPFGDREVDRTNRKILNYVLNAV | not soluble |
| MQMLIPQRLLLILNPILMMKRKKRKKRKKRRERETMMKIPRILKKLRRKRRTRRKRRKRRKRRRRKRRKRRRKRSPRKRRKRRNKDAFYILIISDPSRSLLFGFRKFSIIIQCLTYFSFHILFHNL | soluble |
| MSFFDELKTSLEEAVEIKQGLKEPARVTRYEIADVKAIREQLNVSQSEMAKALGTSVDTIKSWESKRRNPTGLAAKVLATIKENPAFFRELASH | not soluble |
| GMTTWKELTDNNPAHSENYAQRWRNLAAAGNDIYGEARLIDAMAPRGAKILDAGCGQGRIGGYLSKQGHDVLGTDLDPILIDYAKQDFPEARWVVGDLSVDQISETDFDLIVSAGNVMGFLAEDGREPALANIHRALGADGRAVIGFGAGRGWVFGDFLEVAERVGLELENAFESWDLKPFVQGSEFLVAVFTKK | soluble |
| MPRPPHLCTCGQLVPHGARCSCQIQRDRERKARFDQKRPSSRERGYTHEWRKARAEFLHQHPTCAFCGAPAGVVDHVIPHKGDMTLFWDRTNWQALCKPCHDRQKQMQERYNHIISLEHHHHHH | not soluble |
| MGAFFVGVIWHFPVLAFCPLPDKPQWVAVRQVVDGDTLRLVDGRSVRLIGINAPEMGRKGRTSEPYAEAARRRLQALVKANDDRVGLVPGVEGKDKYGRTLAHIYSRNGDNLEAQLLSEGLGYRVAIAPNVRLSGCQQLAEQAARQAGVGLWRHSPVVAASDVRQSGFAVVRGRIEGIERNRGGVWLTLGSTLVLQVPARLQRNFPASFFDNLKGRQVEARGWVLDRSRRGGLKPGQRRWVLPLTDPSMLERISGLEHHHHHH | not soluble |
